Experimental data: the supplement of paper PMC11246515
± gives the standard deviation of the averaged measurements.

Assay: total protein half-life in vivo (active degradation + dilution); higher = more stable protein
[1] = E. coli NCM3722 delta-clpP delta-lon delta-hslV, growth: N-lim chemostat, doubling time 6 h
[2] = E. coli NCM3722 delta-clpP, growth: N-lim chemostat, doubling time 6 h
[3] = E. coli NCM3722 delta-hslV, growth: N-lim chemostat, doubling time 6 h
[4] = E. coli NCM3722 delta-lon, growth: N-lim chemostat, doubling time 6 h
[5] = E. coli NCM3722 delta-smpB, growth: N-lim chemostat, doubling time 6 h
[6] = wild type E. coli NCM3722, growth: C-lim chemostat, doubling time 3 h
[7] = wild type E. coli NCM3722, growth: C-lim chemostat, doubling time 6 h
[8] = wild type E. coli NCM3722, growth: C-lim chemostat, doubling time 12 h
[9] = wild type E. coli NCM3722, growth: N-lim chemostat, doubling time 6 h
[10] = wild type E. coli NCM3722, growth: N-lim chemostat, doubling time 12 h
[11] = wild type E. coli NCM3722, growth: P-lim chemostat, doubling time 6 h
[12] = wild type E. coli NCM3722, growth: P-lim chemostat, doubling time 12 h

| Sequence | total protein half-life in vivo [1] [h] | total protein half-life in vivo [2] [h] | total protein half-life in vivo [3] [h] | total protein half-life in vivo [4] [h] | total protein half-life in vivo [5] [h] | total protein half-life in vivo [6] [h] | total protein half-life in vivo [7] [h] | total protein half-life in vivo [8] [h] | total protein half-life in vivo [9] [h] | total protein half-life in vivo [10] [h] | total protein half-life in vivo [11] [h] | total protein half-life in vivo [12] [h] |
| --- | --- | --- | --- | --- | --- | --- | --- | --- | --- | --- | --- | --- |
| MNPIAVTLLTGFLGAGKTTLLRHILNEQHGYKIAVIENEFGEVSVDDQLIGDRATQIKTLTNGCICCSRSNELEDALLDLLDNLDKGNIQFDRLVIECTGMADPGPIIQTFFSHEVLCQRYLLDGVIALVDAVHADEQMNQFTIAQSQVGYADRILLTKTDVAGEAEKLHERLARINARAPVYTVTHGDIDLGLLFNTNGFMLEENVVSTKPRFHFIADKQNDISSIVVELDYPVDISEVSRVMENLLLESADKLLRYKGMLWIDGEPNRLLFQGVQRLYSADWDRPWGDEKPHSTMVFIGIQLPEEEIRAAFAGLRK | 5.11 ± 1.4 | 3.49 ± 0.12 | 3.471 ± 0.032 | 3.97 ± 0.38 | 3.65 ± 0.28 | 2.876 ± 0.022 | 5.139 ± 0.017 | 8.715 ± 0.082 | 3.52 ± 0.3 | 6.14 ± 0.095 | 4.95 ± 0.4 | 10 ± 0.33 |
| MKKVWLNRYPADVPTEINPDRYQSLVDMFEQSVARYADQPAFVNMGEVMTFRKLEERSRAFAAYLQQGLGLKKGDRVALMMPNLLQYPVALFGILRAGMIVVNVNPLYTPRELEHQLNDSGASAIVIVSNFAHTLEKVVDKTAVQHVILTRMGDQLSTAKGTVVNFVVKYIKRLVPKYHLPDAISFRSALHNGYRMQYVKPELVPEDLAFLQYTGGTTGVAKGAMLTHRNMLANLEQVNATYGPLLHPGKELVVTALPLYHIFALTINCLLFIELGGQNLLITNPRDIPGLVKELAKYPFTAITGVNTLFNALLNNKEFQQLDFSSLHLSAGGGMPVQQVVAERWVKLTGQYLLEGYGLTECAPLVSVNPYDIDYHSGSIGLPVPSTEAKLVDDDDNEVPPGQPGELCVKGPQVMLGYWQRPDATDEIIKNGWLHTGDIAVMDEEGFLRIVDRKKDMILVSGFNVYPNEIEDVVMQHPGVQEVAAVGVPSGSSGEAVKIFVVKKDPSLTEESLVTFCRRQLTGYKVPKLVEFRDELPKSNVGKILRRELRDEARGKVDNKA | – | 5.82 ± 0.16 | 5.05 ± 0.23 | 5.34 ± 0.82 | 4.279 ± 0.022 | 1.68 ± 0.16 | 3.98 ± 0.57 | 6.59 ± 0.46 | 4.879 ± 0.022 | 10.9 ± 1.6 | 4.93 ± 0.11 | 10.8 ± 1.1 |
| MRRELAIEFSRVTESAALAGYKWLGRGDKNTADGAAVNAMRIMLNQVNIDGTIVIGEGEIDEAPMLYIGEKVGTGRGDAVDIAVDPIEGTRMTAMGQANALAVLAVGDKGCFLNAPDMYMEKLIVGPGAKGTIDLNLPLADNLRNVAAALGKPLSELTVTILAKPRHDAVIAEMQQLGVRVFAIPDGDVAASILTCMPDSEVDVLYGIGGAPEGVVSAAVIRALDGDMNGRLLARHDVKGDNEENRRIGEQELARCKAMGIEAGKVLRLGDMARSDNVIFSATGITKGDLLEGISRKGNIATTETLLIRGKSRTIRRIQSIHYLDRKDPEMQVHIL [P0A9C9] | – | 4.69 ± 0.43 | 4.84 ± 0.68 | 4.309 ± 0.04 | 4.27 ± 0.27 | 3.593 ± 0.019 | 5.39 ± 0.19 | 9.84 ± 0.62 | 4.51 ± 0.52 | 7.05 ± 0.25 | 5.75 ± 0.21 | 12 ± 1.2 |
| MSTPDFSTAENNQELANEVSCLKAMLTLMLQAMGQADAGRVMLKMEKQLALIEDETQAAVFSKTVKQIKQAYRQ [P0AD07] | – | – | – | – | – | – | – | – | – | – | – | 7.56 ± 2.9 |
| MLKVEMLSTGDEVLHGQIVDTNAAWLADFFFHQGLPLSRRNTVGDNLDDLVTILRERSQHADVLIVNGGLGPTSDDLSALAAATAKGEGLVLHEAWLKEMERYFHERGRVMAPSNRKQAELPASAEFINNPVGTACGFAVQLNRCLMFFTPGVPSEFKVMVEHEILPRLRERFSLPQPPVCLRLTTFGRSESDLAQSLDTLQLPPGVTMGYRSSMPIIELKLTGPASEQQAMEKLWLDVKRVAGQSVIFEGTEGLPAQISRELQNRQFSLTLSEQFTGGLLALQLSRAGAPLLACEVVPSQEETLAQTAHWITERRANHFAGLALAVSGFENEHLNFALATPDGTFALRVRFSTTRYSLAIRQEVCAMMALNMLRRWLNGQDIASEHGWIEVVESMTLSV | 4.98 ± 0.18 | 4.36 ± 0.044 | 4.01 ± 0.17 | 4.79 ± 0.35 | 4.32 ± 0.093 | 3.098 ± 0.027 | 5.27 ± 0.91 | 9.19 ± 2.1 | 3.94 ± 0.2 | 6.9 ± 0.57 | 6.25 ± 0.51 | 11.2 ± 0.81 |
| MKATKLVLGAVILGSTLLAGCSSNAKIDQLSSDVQTLNAKVDQLSNDVNAMRSDVQAAKDDAARANQRLDNMATKYRK | 5.79 ± 1.4 | 6.38 ± 0.67 | 5.95 ± 0.4 | – | 5.03 ± 0.051 | 3.11 ± 0.35 | 4.92 ± 0.76 | 11.2 ± 3.2 | 5.81 ± 0.7 | 11.7 ± 3.1 | 5.66 ± 0.3 | 12.1 ± 0.34 |
